# B1: NLS-NUPR1L, peptide of the nuclear localization sequence of NUPR1L (residues 51-74) (peptide)
# peptide: Ac-RTRREQALRTNWPAPGGHERKVAQ-NH2
# notes: NUPR1L residues Arg51 to Gln74, the predicted NLS region; numbering as in intact NUPR1L; also called NLS-NUNPR1L; source: synthetic peptide (NZYtech, purity of 95%)
# B2: Impα3: Human importin α3 isoform (residues 1–521) (protein, UniProt O00629 1-521, looked up)
# chain: MADNEKLDNQRLKNFKNKGRDLETMRRQRNEVVVELRKNKRDEHLLKRRNVPHEDICEDSDIDGDYRVQNTSLEAIVQNASSDNQGIQLSAVQAARKLLSSDRNPPIDDLIKSGILPILVHCLERDDNPSLQFEAAWALTNIASGTSEQTQAVVQSNAVPLFLRLLHSPHQNVCEQAVWALGNIIGDGPQCRDYVISLGVVKPLLSFISPSIPITFLRNVTWVMVNLCRHKDPPPPMETIQEILPALCVLIHHTDVNILVDTVWALSYLTDAGNEQIQMVIDSGIVPHLVPLLSHQEVKVQTAALRAVGNIVTGTDEQTQVVLNCDALSHFPALLTHPKEKINKEAVWFLSNITAGNQQQVQAVIDANLVPMIIHLLDKGDFGTQKEAAWAISNLTISGRKDQVAYLIQQNVIPPFCNLLTVKDAQVVQVVLDGLSNILKMAEDEAETIGNLIEECGGLEKIEQLQNHENEDIYKLAYEIIDQFFSSDDIDEDPSLVPEAIQGGTFGFNSSANVPTEGFQF
# modifications: full-length
# B3: ∆Impα3: Truncated species of Impα3 (residues 64-521) depleted of the IBB (protein, UniProt O00629 64-521, looked up, fragment)
# chain: GDYRVQNTSLEAIVQNASSDNQGIQLSAVQAARKLLSSDRNPPIDDLIKSGILPILVHCLERDDNPSLQFEAAWALTNIASGTSEQTQAVVQSNAVPLFLRLLHSPHQNVCEQAVWALGNIIGDGPQCRDYVISLGVVKPLLSFISPSIPITFLRNVTWVMVNLCRHKDPPPPMETIQEILPALCVLIHHTDVNILVDTVWALSYLTDAGNEQIQMVIDSGIVPHLVPLLSHQEVKVQTAALRAVGNIVTGTDEQTQVVLNCDALSHFPALLTHPKEKINKEAVWFLSNITAGNQQQVQAVIDANLVPMIIHLLDKGDFGTQKEAAWAISNLTISGRKDQVAYLIQQNVIPPFCNLLTVKDAQVVQVVLDGLSNILKMAEDEAETIGNLIEECGGLEKIEQLQNHENEDIYKLAYEIIDQFFSSDDIDEDPSLVPEAIQGGTFGFNSSANVPTEGFQF
# B4: NUPR1L, the NUPR1-like paralogue (intact) (natural protein, UniProt A6NF83 1-97, looked up)
# chain: MEAPAERALPRLQALARPPPPISYEEELYDCLDYYYLRDFPACGAGRSKGRTRREQALRTNWPAPGGHERKVAQKLLNGQRKRRQRQLHPKMRTRLT
# notes: NUPR1L, 97-residue-long paralogue of NUPR1, intact protein; one tryptophan (Trp62) and five tyrosines; concentrations are in protomer units; also called intact NUPR1L; source: expressed and purified as described [14]
# Experiments:
# [1] = biological target: T1, human importin α3 (Impα3), intact (human, UniProt O00629 1-521); test: ITC; Impα3 or ∆Impα3 (10-20 μM) in the cell, NLS-NUPR1L (150-300 μM) in the syringe; Tris 50 mM, pH 8, 298 K; single ligand binding site model; conditions: both partners purified
# T1 construct: Human importin α3 (KPNA4), intact protein with the IBB domain, residues 1-521; Purification as for ∆Impα3; also called KPNA4; source: E. coli BL21 (DE3), purified (codon-optimized DNA synthesized by NZYtech, in the pHTP1 vector)
# T1 sequence (looked up): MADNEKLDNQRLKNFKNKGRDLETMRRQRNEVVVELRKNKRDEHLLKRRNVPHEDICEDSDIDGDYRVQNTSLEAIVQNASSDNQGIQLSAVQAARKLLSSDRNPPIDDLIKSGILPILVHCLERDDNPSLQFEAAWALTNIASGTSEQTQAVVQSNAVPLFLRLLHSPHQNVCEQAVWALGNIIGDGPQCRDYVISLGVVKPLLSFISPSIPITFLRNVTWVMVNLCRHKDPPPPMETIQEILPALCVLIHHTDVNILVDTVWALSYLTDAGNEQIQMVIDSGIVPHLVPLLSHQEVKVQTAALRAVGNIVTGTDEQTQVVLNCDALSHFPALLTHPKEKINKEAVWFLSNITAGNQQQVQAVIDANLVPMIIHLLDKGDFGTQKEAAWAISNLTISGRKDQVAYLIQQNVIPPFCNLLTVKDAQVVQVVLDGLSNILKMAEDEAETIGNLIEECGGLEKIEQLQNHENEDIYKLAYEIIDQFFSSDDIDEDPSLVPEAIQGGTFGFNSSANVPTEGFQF
# [2] = biological target: T2, ∆Impα3, truncated species of human importin α3 (residues 64-521) depleted of the IBB (human, UniProt O00629 64-521); test: as above; conditions: both partners purified
# T2 construct: source: E. coli BL21 (DE3), purified (codon-optimized)
# T2 sequence (looked up): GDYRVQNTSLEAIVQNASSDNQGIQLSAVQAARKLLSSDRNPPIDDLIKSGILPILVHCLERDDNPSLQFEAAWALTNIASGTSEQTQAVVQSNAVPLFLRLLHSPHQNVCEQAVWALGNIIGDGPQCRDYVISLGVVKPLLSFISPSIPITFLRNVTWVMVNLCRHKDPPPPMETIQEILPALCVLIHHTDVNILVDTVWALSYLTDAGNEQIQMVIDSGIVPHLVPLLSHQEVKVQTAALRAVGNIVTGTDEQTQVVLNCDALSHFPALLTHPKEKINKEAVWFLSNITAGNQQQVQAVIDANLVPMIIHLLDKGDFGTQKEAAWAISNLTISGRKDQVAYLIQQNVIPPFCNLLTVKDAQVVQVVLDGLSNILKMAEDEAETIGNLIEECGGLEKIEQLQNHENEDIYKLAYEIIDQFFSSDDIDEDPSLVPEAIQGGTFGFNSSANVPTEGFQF
# [3] = biological target: T1, human importin α3 (Impα3), intact; test: other fluorescence titration; importin (0-10 μM) added to a fixed concentration of NUPR1L (8 μM) or NLS-NUPR1L (8.5 μM); 50 mM phosphate buffer, pH 7.0, 298 K; excitation at 280 nm; apparent dissociation constants; conditions: both partners purified
# [4] = biological target: T2, ∆Impα3, truncated species of human …; test: as above; conditions: both partners purified
# [5] = ref [25]; cited from earlier work
# [6] = tested on: ∆Impα3; conditions: CD 222 nm, 60 K/h, 50 mM phosphate pH 7.0, not reversible
# Source text: Far-UV CD spectra were collected on a Jasco J810 spectropolarimeter (Jasco, Tokyo, Japan) with a thermostated cell holder, and interfaced with a Peltier unit at 298 K. The instrument was periodically calibrated with (+)-10-camphorsulphonic acid. A cell with a path length of 0.1 cm was used (Hellma, Kruibeke, Belgium). All spectra were corrected by subtracting the corresponding baseline. The concentration of each polypeptide (importin species and either NLS-NUPR1L or intact NUPR1L) was the same as that used in the fluorescence experiments (Section 4.4).
# [7] = tested on: prothymosin α; conditions: ref [14]; cited from earlier work
# Source text: In this aspect, NLS-NUPR1L behaves not differently from any other NLS region of a well-folded protein [15, 20, 22, 40]; that is, it is disordered both in isolation and when participating in forming the complex with impo ...
# [8] = cited from earlier work
# [9] = biological target: T1, human importin α3 (Impα3), intact; test: other fluorescence titration; importin (0-10 μM) added to a fixed concentration of NUPR1L (8 μM) or NLS-NUPR1L (8.5 μM); 50 mM phosphate buffer, pH 7.0, 298 K; excitation at 280 nm; apparent dissociation constants; conditions: both partners purified; remark: listed apart in the source
# [10] = biological target: T2, ∆Impα3, truncated species of human …; test: as above; conditions: both partners purified; remark: listed apart in the source
molecule,measurement,setting,value
B1,Kd,[1],12 ± 2 µM
same,dH,[1],-3.1 ± 0.5 kcal/mol
same,stoichiometry N,[1],1.04 ± 0.05
same,Kd,[2],5.5 ± 0.9 µM
same,dH,[2],-2.4 ± 0.5 kcal/mol
same,stoichiometry N,[2],0.75 ± 0.06
same,Kd,[3],3000 ± 1000 nM
same,Kd,[4],5 ± 2 µM
B2,solubility (relative to other importin species),[5],larger solubility
B3,solubility (relative to other importin species),[5],lower solubility
same,apparent thermal midpoint of unfolding of isolated ∆Impα3,[6]; absence of NUPR1L,317 K
B4,involvement of Trp62 in binding to prothymosin α,[7],Trp62 is also involved in the binding of NUPR1L to prothymosin α
same,self-association state in solution,"[8]; intact protein in solution, no reference at the place",oligomer
same,tendency to aggregate,"[8]; intact protein, ref [14]",high tendency to aggregate
same,Kd,[9],4 ± 0.7 µM
same,Kd,[10],5 ± 1 µM
same,"apparent thermal midpoint of unfolding of ∆Impα3, in presence of NUPR1L","[6]; 15 μM NUPR1L, 5 μM importin",323 K

# — PMC7583046, “The Paralogue of the Intrinsically Disordered Nuclear Protein 1 Has a Nuclear Localization Sequence that Binds to Human Importin α3” (International Journal of Molecular Sciences, 2020)
